According to paper PMC3724859 (2013):
No end group written: not given here.

Key:
[1] = target: EINbsite peptide (active-site region of EIN^sc) (UniProt Q9KZP1); test: ITC (Auto-ITC200) in two buffers of different ionisation enthalpy; conditions: pH 7.0; 25 C; no added salt stated; 10 mM Mes (pH 7.0) and 10 mM Mops (pH 7.0); delta H ion 3.55 and 5.05 kcal/mol
[2] = target: EINosite peptide (HPr-contacting region of EIN^sc) (UniProt Q9KZP1); test: as above; conditions: pH 7.0; 25 C; no added salt stated; 10 mM Mes (pH 7.0) and 10 mM Mops (pH 7.0); delta H ion 3.55 and 5.05 kcal/mol
[3] = target: N-terminal domain of enzyme I, phosphomimetic mutant EINH186D H186D (UniProt Q9KZP1); test: as above; conditions: pH 7.0; 25 C; no added salt stated; 10 mM Mes (pH 7.0) and 10 mM Mops (pH 7.0); delta H ion 3.55 and 5.05 kcal/mol
[4] = target: N-terminal domain of enzyme I, wild type (EIN^sc) (UniProt Q9KZP1); test: as above; conditions: pH 7.0; 25 C; no added salt stated; 10 mM Mes (pH 7.0) and 10 mM Mops (pH 7.0); delta H ion 3.55 and 5.05 kcal/mol
[5] = target: EINsite peptides (Streptomyces coelicolor) (UniProt Q9KZP1); conditions: cited from earlier work
[6] = target: EINsc H186D EIN (Streptomyces coelicolor) (UniProt Q9KZP1); conditions: cited from earlier work
[7] = target: Histidine phosphocarrier protein HPr (HPr^sc); test: not stated here (value quoted from ref. [19]; presumably ITC in several buffers); conditions: pH not stated; cited from earlier work
[8] = target: T1, EINbsite + EINosite equimolar peptide mixture (Streptomyces coelicolor, UniProt Q9KZP1, C-terminal amidation, equimolar mixture of both peptides); test: ITC
T1 chain 1: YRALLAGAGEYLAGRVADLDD
T1 chain 2: FVTEEGGPTSHSAILARA

[9] = target: T2, EINsc (enzyme I N-terminal domain) N-terminal domain (Streptomyces coelicolor, UniProt Q9KZP1); test: ITC
T2 chain: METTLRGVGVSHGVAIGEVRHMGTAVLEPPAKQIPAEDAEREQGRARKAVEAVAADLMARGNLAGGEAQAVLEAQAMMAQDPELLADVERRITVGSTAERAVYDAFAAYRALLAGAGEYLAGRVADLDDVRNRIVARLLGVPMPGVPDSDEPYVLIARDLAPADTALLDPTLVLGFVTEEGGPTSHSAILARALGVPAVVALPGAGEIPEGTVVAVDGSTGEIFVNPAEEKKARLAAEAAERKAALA

EINosite peptide = target: T3, EINosite peptide (Streptomyces coelicolor, C-terminal amidation); test: ITC
T3 chain: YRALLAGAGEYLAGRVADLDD

EINbsite peptide = target: T4, EINbsite peptide (Streptomyces coelicolor); test: ITC
T4 chain: FVTEEGGPTSHSAILARA-NH2

[10] = target: T5, EINH186D (enzyme I N-terminal domain) N-terminal domain (Streptomyces coelicolor, UniProt Q9KZP1); test: ITC
T5 chain: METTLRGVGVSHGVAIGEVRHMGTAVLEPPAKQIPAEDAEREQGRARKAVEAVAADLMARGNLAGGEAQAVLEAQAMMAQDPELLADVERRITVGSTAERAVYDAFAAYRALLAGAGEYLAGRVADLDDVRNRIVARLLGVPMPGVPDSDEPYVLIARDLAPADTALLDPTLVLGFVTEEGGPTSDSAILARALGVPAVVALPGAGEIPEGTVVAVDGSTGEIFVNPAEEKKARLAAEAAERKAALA

ITC dilution = target: the molecule itself; test: ITC dilution

## Histidine phosphocarrier protein HPr (HPr^bs)
[1]
  n H: -0.31 protons
[2]
  n H: 0.28 protons
[3]
  n H: -0.31 protons
[4]
  n H: 0.17 protons

## HPrsc (from UniProt O50515)
[5]
  Kd: 16 µM
[6]
  Kd: 10 µM

## N-terminal domain of enzyme I, wild type (EIN^sc)
[7]
  n H: 0.52 protons

B1: HPrbs (histidine phosphocarrier protein) (protein)
chain: MKTQQFTVIDPLGIHARPASQLVAKATPFASAIEVRTEEKAANLKSILGVMGLALKQGSQFTLYVEGEDEDQAFEALATLLTEMGLAQ
[8]
  Kd: 4.8 µM
[9]
  Kd: 1.9 µM
EINosite peptide
  Kd: 3 µM
EINbsite peptide
  Kd: 3.9 µM
[10]
  Kd: 2.9 µM
ITC dilution
  Kd: 6.5 µM
